# Experimental data reported in patent US20170101454A1 (Novo Nordisk, published 2017).
# Starred links: 1 amine or outer side, 2 acyl side, 3 side chain; linkers in the order of their positions; H or OH if unused. Non-standard residues stand in square brackets, D forms with d. Groups on a side chain read outwards from the residue. No end group written: not given here. *: point of attachment. C18 diacid = O=C(O)CCCCCCCCCCCCCCCCC(=O)*; γGlu = O=C(O)[C@H](CCC(=O)[*:2])N[*:1]; Ac4c = NC1(C(=O)O)CCC1; AEEA = NCCOCCOCC(=O)O; Aib = CC(C)(N)C(=O)O
# B1: N^ε29-[(4S)-4-carboxy-4-[[(4S)-4-carboxy-4-[[2-[2-[2-[[2-[2-[2-[[(4S)-4-carboxy-4-(17-carboxyheptadecanoylamino)butanoyl]amino]ethoxy]ethoxy]acetyl]amino]ethoxy … (peptide)
# chain: H[Aib]QGTFTSDLSKYLDLRRARDFVQWLISK([γGlu-γGlu-AEEA-AEEA-γGlu-C18 diacid])-NH2
# modifications: N-terminus assumed
# SMILES: CC[C@H](C)[C@H](NC(=O)[C@H](CC(C)C)NC(=O)[C@H](Cc1c[nH]c2ccccc12)NC(=O)[C@H](CCC(N)=O)NC(=O)[C@@H](NC(=O)[C@H](Cc1ccccc1)NC(=O)[C@H](CC(=O)O)NC(=O)[C@H](CCCNC(=N)N)NC(=O)[C@H](C)NC(=O)[C@H](CCCNC(=N)N)NC(=O)[C@H](CCCNC(=N)N)NC(=O)[C@H](CC(C)C)NC(=O)[C@H](CC(=O)O)NC(=O)[C@H](CC(C)C)NC(=O)[C@H](Cc1ccc(O)cc1)NC(=O)[C@H](CCCCN)NC(=O)[C@H](CO)NC(=O)[C@H](CC(C)C)NC(=O)[C@H](CC(=O)O)NC(=O)[C@H](CO)NC(=O)[C@@H](NC(=O)[C@H](Cc1ccccc1)NC(=O)[C@@H](NC(=O)CNC(=O)[C@H](CCC(N)=O)NC(=O)C(C)(C)NC(=O)[C@@H](N)Cc1c[nH]cn1)[C@@H](C)O)[C@@H](C)O)C(C)C)C(=O)N[C@@H](CO)C(=O)N[C@@H](CCCCNC(=O)CC[C@H](NC(=O)CC[C@H](NC(=O)COCCOCCNC(=O)COCCOCCNC(=O)CC[C@H](NC(=O)CCCCCCCCCCCCCCCCC(=O)O)C(=O)O)C(=O)O)C(=O)O)C(N)=O
# B2: N^ε28-[2-[[(2S)-2-[[(2S)-4-carboxy-2-[[2-[[(2S)-2-[[(4S)-4-carboxy-4-[[(4S)-4-carboxy-4-(17-carboxyheptadecanoylamino)butanoyl]amino]butanoyl]amino]-3-hydroxypr … (peptide)
# peptide: H[Ac4c]QGTFTSDLSKYLESRRAREFVQWLIK([Gly-Ser-Glu-Gly-Ser-γGlu-γGlu-C18 diacid])T-NH2
# notes: also called Chem. 16; Chem 16
# B3: N^ε29-[(4S)-4-carboxy-4-[[(4S)-4-carboxy-4-[[2-[2-[2-[[2-[2-[2-[[(4S)-4-carboxy-4-(17-carboxyheptadecanoylamino)butanoyl]amino]ethoxy]ethoxy]acetyl]amino]ethoxy … (peptide)
# peptide: H[Aib]QGTFTSDLSKYLDLRRAREFVQWLINK([γGlu-γGlu-AEEA-AEEA-γGlu-C18 diacid])-NH2
# modifications: N-terminus assumed
# SMILES: CC[C@H](C)[C@H](NC(=O)[C@H](CC(C)C)NC(=O)[C@H](Cc1c[nH]c2ccccc12)NC(=O)[C@H](CCC(N)=O)NC(=O)[C@@H](NC(=O)[C@H](Cc1ccccc1)NC(=O)[C@H](CCC(=O)O)NC(=O)[C@H](CCCNC(=N)N)NC(=O)[C@H](C)NC(=O)[C@H](CCCNC(=N)N)NC(=O)[C@H](CCCNC(=N)N)NC(=O)[C@H](CC(C)C)NC(=O)[C@H](CC(=O)O)NC(=O)[C@H](CC(C)C)NC(=O)[C@H](Cc1ccc(O)cc1)NC(=O)[C@H](CCCCN)NC(=O)[C@H](CO)NC(=O)[C@H](CC(C)C)NC(=O)[C@H](CC(=O)O)NC(=O)[C@H](CO)NC(=O)[C@@H](NC(=O)[C@H](Cc1ccccc1)NC(=O)[C@@H](NC(=O)CNC(=O)[C@H](CCC(N)=O)NC(=O)C(C)(C)NC(=O)[C@@H](N)Cc1c[nH]cn1)[C@@H](C)O)[C@@H](C)O)C(C)C)C(=O)N[C@@H](CC(N)=O)C(=O)N[C@@H](CCCCNC(=O)CC[C@H](NC(=O)CC[C@H](NC(=O)COCCOCCNC(=O)COCCOCCNC(=O)CC[C@H](NC(=O)CCCCCCCCCCCCCCCCC(=O)O)C(=O)O)C(=O)O)C(=O)O)C(N)=O
# notes: also called Chem. 22; Chem 22
# B4: N^ε28-[(4S)-4-carboxy-4-[[(4S)-4-carboxy-4-[[2-[2-[2-[[2-[2-[2-[[(4S)-4-carboxy-4-[[(4S)-4-carboxy-4-(17-carboxyheptadecanoylamino)butanoyl]amino]butanoyl]amino … (peptide)
# peptide: H[Ac4c]QGTFTSDVSKYLESRRAREFVQWLIK([γGlu-γGlu-AEEA-AEEA-γGlu-γGlu-C18 diacid])T-NH2
# modifications: N-terminus assumed
# SMILES: CC[C@H](C)[C@H](NC(=O)[C@H](CC(C)C)NC(=O)[C@H](Cc1c[nH]c2ccccc12)NC(=O)[C@H](CCC(N)=O)NC(=O)[C@@H](NC(=O)[C@H](Cc1ccccc1)NC(=O)[C@H](CCC(=O)O)NC(=O)[C@H](CCCNC(=N)N)NC(=O)[C@H](C)NC(=O)[C@H](CCCNC(=N)N)NC(=O)[C@H](CCCNC(=N)N)NC(=O)[C@H](CO)NC(=O)[C@H](CCC(=O)O)NC(=O)[C@H](CC(C)C)NC(=O)[C@H](Cc1ccc(O)cc1)NC(=O)[C@H](CCCCN)NC(=O)[C@H](CO)NC(=O)[C@@H](NC(=O)[C@H](CC(=O)O)NC(=O)[C@H](CO)NC(=O)[C@@H](NC(=O)[C@H](Cc1ccccc1)NC(=O)[C@@H](NC(=O)CNC(=O)[C@H](CCC(N)=O)NC(=O)C1(NC(=O)[C@@H](N)Cc2c[nH]cn2)CCC1)[C@@H](C)O)[C@@H](C)O)C(C)C)C(C)C)C(=O)N[C@@H](CCCCNC(=O)CC[C@H](NC(=O)CC[C@H](NC(=O)COCCOCCNC(=O)COCCOCCNC(=O)CC[C@H](NC(=O)CC[C@H](NC(=O)CCCCCCCCCCCCCCCCC(=O)O)C(=O)O)C(=O)O)C(=O)O)C(=O)O)C(=O)N[C@H](C(N)=O)[C@@H](C)O
# notes: also called Chem. 19; Chem 19
# B5: N^ε29-[(4S)-4-carboxy-4-[[(4S)-4-carboxy-4-[[2-[2-[2-[[2-[2-[2-[[(4S)-4-carboxy-4-(17-carboxyheptadecanoylamino)butanoyl]amino]ethoxy]ethoxy]acetyl]amino]ethoxy … (peptide)
# chain: H[Aib]QGTFTSDYSKYLESRRAQDFVAWLISK([γGlu-γGlu-AEEA-AEEA-γGlu-C18 diacid])-NH2
# modifications: N-terminus assumed
# SMILES: CC[C@H](C)[C@H](NC(=O)[C@H](CC(C)C)NC(=O)[C@H](Cc1c[nH]c2ccccc12)NC(=O)[C@H](C)NC(=O)[C@@H](NC(=O)[C@H](Cc1ccccc1)NC(=O)[C@H](CC(=O)O)NC(=O)[C@H](CCC(N)=O)NC(=O)[C@H](C)NC(=O)[C@H](CCCNC(=N)N)NC(=O)[C@H](CCCNC(=N)N)NC(=O)[C@H](CO)NC(=O)[C@H](CCC(=O)O)NC(=O)[C@H](CC(C)C)NC(=O)[C@H](Cc1ccc(O)cc1)NC(=O)[C@H](CCCCN)NC(=O)[C@H](CO)NC(=O)[C@H](Cc1ccc(O)cc1)NC(=O)[C@H](CC(=O)O)NC(=O)[C@H](CO)NC(=O)[C@@H](NC(=O)[C@H](Cc1ccccc1)NC(=O)[C@@H](NC(=O)CNC(=O)[C@H](CCC(N)=O)NC(=O)C(C)(C)NC(=O)[C@@H](N)Cc1c[nH]cn1)[C@@H](C)O)[C@@H](C)O)C(C)C)C(=O)N[C@@H](CO)C(=O)N[C@@H](CCCCNC(=O)CC[C@H](NC(=O)CC[C@H](NC(=O)COCCOCCNC(=O)COCCOCCNC(=O)CC[C@H](NC(=O)CCCCCCCCCCCCCCCCC(=O)O)C(=O)O)C(=O)O)C(=O)O)C(N)=O
# B6: N^ε29-[(4S)-4-carboxy-4-[[(4S)-4-carboxy-4-[[2-[2-[2-[[2-[2-[2-[[(4S)-4-carboxy-4-(17-carboxyheptadecanoylamino)butanoyl]amino]ethoxy]ethoxy]acetyl]amino]ethoxy … (peptide)
# chain: H[Aib]QGTFTSDLSKYLDLRRARDFVAWLISK([γGlu-γGlu-AEEA-AEEA-γGlu-C18 diacid])-NH2
# modifications: N-terminus assumed
# SMILES: CC[C@H](C)[C@H](NC(=O)[C@H](CC(C)C)NC(=O)[C@H](Cc1c[nH]c2ccccc12)NC(=O)[C@H](C)NC(=O)[C@@H](NC(=O)[C@H](Cc1ccccc1)NC(=O)[C@H](CC(=O)O)NC(=O)[C@H](CCCNC(=N)N)NC(=O)[C@H](C)NC(=O)[C@H](CCCNC(=N)N)NC(=O)[C@H](CCCNC(=N)N)NC(=O)[C@H](CC(C)C)NC(=O)[C@H](CC(=O)O)NC(=O)[C@H](CC(C)C)NC(=O)[C@H](Cc1ccc(O)cc1)NC(=O)[C@H](CCCCN)NC(=O)[C@H](CO)NC(=O)[C@H](CC(C)C)NC(=O)[C@H](CC(=O)O)NC(=O)[C@H](CO)NC(=O)[C@@H](NC(=O)[C@H](Cc1ccccc1)NC(=O)[C@@H](NC(=O)CNC(=O)[C@H](CCC(N)=O)NC(=O)C(C)(C)NC(=O)[C@@H](N)Cc1c[nH]cn1)[C@@H](C)O)[C@@H](C)O)C(C)C)C(=O)N[C@@H](CO)C(=O)N[C@@H](CCCCNC(=O)CC[C@H](NC(=O)CC[C@H](NC(=O)COCCOCCNC(=O)COCCOCCNC(=O)CC[C@H](NC(=O)CCCCCCCCCCCCCCCCC(=O)O)C(=O)O)C(=O)O)C(=O)O)C(N)=O
# B7: N^ε29-[(4S)-4-carboxy-4-[[(4S)-4-carboxy-4-[[2-[2-[2-[[2-[2-[2-[[(4S)-4-carboxy-4-(17-carboxyheptadecanoylamino)butanoyl]amino]ethoxy]ethoxy]acetyl]amino]ethoxy … (peptide)
# chain: H[Aib]QGTFTSDLSKYLDLRRAREFVQWLISK([γGlu-γGlu-AEEA-AEEA-γGlu-C18 diacid])-NH2
# modifications: N-terminus assumed
# SMILES: CC[C@H](C)[C@H](NC(=O)[C@H](CC(C)C)NC(=O)[C@H](Cc1c[nH]c2ccccc12)NC(=O)[C@H](CCC(N)=O)NC(=O)[C@@H](NC(=O)[C@H](Cc1ccccc1)NC(=O)[C@H](CCC(=O)O)NC(=O)[C@H](CCCNC(=N)N)NC(=O)[C@H](C)NC(=O)[C@H](CCCNC(=N)N)NC(=O)[C@H](CCCNC(=N)N)NC(=O)[C@H](CC(C)C)NC(=O)[C@H](CC(=O)O)NC(=O)[C@H](CC(C)C)NC(=O)[C@H](Cc1ccc(O)cc1)NC(=O)[C@H](CCCCN)NC(=O)[C@H](CO)NC(=O)[C@H](CC(C)C)NC(=O)[C@H](CC(=O)O)NC(=O)[C@H](CO)NC(=O)[C@@H](NC(=O)[C@H](Cc1ccccc1)NC(=O)[C@@H](NC(=O)CNC(=O)[C@H](CCC(N)=O)NC(=O)C(C)(C)NC(=O)[C@@H](N)Cc1c[nH]cn1)[C@@H](C)O)[C@@H](C)O)C(C)C)C(=O)N[C@@H](CO)C(=O)N[C@@H](CCCCNC(=O)CC[C@H](NC(=O)CC[C@H](NC(=O)COCCOCCNC(=O)COCCOCCNC(=O)CC[C@H](NC(=O)CCCCCCCCCCCCCCCCC(=O)O)C(=O)O)C(=O)O)C(=O)O)C(N)=O
# B8: N^ε29-[(4S)-4-carboxy-4-[[(4S)-4-carboxy-4-[[2-[2-[2-[[2-[2-[2-[[(4S)-4-carboxy-4-(17-carboxyheptadecanoylamino)butanoyl]amino]ethoxy]ethoxy]acetyl]amino]ethoxy … (peptide)
# chain: H[Aib]QGTFTSDLSKYLDLRRARDFVQWLINK([γGlu-γGlu-AEEA-AEEA-γGlu-C18 diacid])-NH2
# modifications: N-terminus assumed
# SMILES: CC[C@H](C)[C@H](NC(=O)[C@H](CC(C)C)NC(=O)[C@H](Cc1c[nH]c2ccccc12)NC(=O)[C@H](CCC(N)=O)NC(=O)[C@@H](NC(=O)[C@H](Cc1ccccc1)NC(=O)[C@H](CC(=O)O)NC(=O)[C@H](CCCNC(=N)N)NC(=O)[C@H](C)NC(=O)[C@H](CCCNC(=N)N)NC(=O)[C@H](CCCNC(=N)N)NC(=O)[C@H](CC(C)C)NC(=O)[C@H](CC(=O)O)NC(=O)[C@H](CC(C)C)NC(=O)[C@H](Cc1ccc(O)cc1)NC(=O)[C@H](CCCCN)NC(=O)[C@H](CO)NC(=O)[C@H](CC(C)C)NC(=O)[C@H](CC(=O)O)NC(=O)[C@H](CO)NC(=O)[C@@H](NC(=O)[C@H](Cc1ccccc1)NC(=O)[C@@H](NC(=O)CNC(=O)[C@H](CCC(N)=O)NC(=O)C(C)(C)NC(=O)[C@@H](N)Cc1c[nH]cn1)[C@@H](C)O)[C@@H](C)O)C(C)C)C(=O)N[C@@H](CC(N)=O)C(=O)N[C@@H](CCCCNC(=O)CC[C@H](NC(=O)CC[C@H](NC(=O)COCCOCCNC(=O)COCCOCCNC(=O)CC[C@H](NC(=O)CCCCCCCCCCCCCCCCC(=O)O)C(=O)O)C(=O)O)C(=O)O)C(N)=O
# Columns and labels:
# human GLP-1 receptor [1] = biological target: T1, human GLP-1 receptor (human, UniProt P43220 24-463); experiment: displacement of [125I]-GLP-1-(7-36)NH2 from BHK membranes with human GLP-1R, SPA, no serum albumin
# T1 construct: whole, on cells; reporter assay used whole cells
# human glucagon receptor [2] = biological target: T2, human glucagon receptor (human, UniProt P47871 26-477); experiment: displacement of [125I]-glucagon from BHK membranes with human glucagon receptor, SPA, no serum albumin
# T2 construct: whole, on cells; reporter assay used whole cells; also called hGCGR
# T2 sequence (P47871 26-477): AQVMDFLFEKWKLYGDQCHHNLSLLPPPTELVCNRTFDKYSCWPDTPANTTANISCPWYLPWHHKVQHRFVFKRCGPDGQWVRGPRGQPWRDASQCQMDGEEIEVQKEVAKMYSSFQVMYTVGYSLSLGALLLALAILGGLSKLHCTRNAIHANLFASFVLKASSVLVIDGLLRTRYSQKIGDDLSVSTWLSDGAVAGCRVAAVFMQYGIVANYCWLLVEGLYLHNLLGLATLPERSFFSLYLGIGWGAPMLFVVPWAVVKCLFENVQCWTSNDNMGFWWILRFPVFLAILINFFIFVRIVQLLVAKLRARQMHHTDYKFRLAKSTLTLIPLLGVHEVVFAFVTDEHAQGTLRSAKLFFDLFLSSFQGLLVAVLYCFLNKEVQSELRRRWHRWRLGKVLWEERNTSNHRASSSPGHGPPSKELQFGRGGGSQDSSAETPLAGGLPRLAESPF
# human GLP-1 receptor [3] = biological target: T1, human GLP-1 receptor; experiment: cell-based or functional assay
# human glucagon receptor [4] = biological target: T2, human glucagon receptor; experiment: cell-based or functional assay
Binder,IC50 (human GLP-1 receptor [1]) [nM],IC50 (human glucagon receptor [2]) [nM],"GLP-1R EC50 (pM) [Assay (I)(a)], CRE luciferase reporter, BHK cells (human GLP-1 receptor [3]) [pM]","GlucagonR EC50 (pM), [Assay (I)(b)], CRE luciferase reporter, BHK cells (human glucagon receptor [4]) [pM]"
B1,1,64.7,–,–
B2,–,2.7,5,13
B3,0.3,67.3,–,–
B4,–,2.5,6,37
B5,2.2,60,–,–
B6,1.1,144,–,–
B7,0.9,71.2,–,–
B8,0.3,83.2,–,–
